Source: publication PMC9475553, “SHF Acts as a Novel Tumor Suppressor in Glioblastoma Multiforme by Disrupting STAT3 Dimerization” (Advanced Science, 2022)

Biological target: T1, recombinant STAT3 (immobilized, static adsorption assay) (UniProt P40763 1-770)
T1 construct: STAT3, called 'recombinant STAT3' in the legend and 'immobilized STAT3 peptide' in the results; also called immobilized STAT3; STAT3 (powder)
Assay: static adsorption equilibrium assay; immobilized STAT3 (85 nmol g^-1 wet gel) in 20 mL PBS with 2-20 µM C16 or scramble, stirred 12 h; free peptide by absorbance at 240 nm; Langmuir isotherm
Settings: both partners purified

T1 sequence (P40763 whole entry): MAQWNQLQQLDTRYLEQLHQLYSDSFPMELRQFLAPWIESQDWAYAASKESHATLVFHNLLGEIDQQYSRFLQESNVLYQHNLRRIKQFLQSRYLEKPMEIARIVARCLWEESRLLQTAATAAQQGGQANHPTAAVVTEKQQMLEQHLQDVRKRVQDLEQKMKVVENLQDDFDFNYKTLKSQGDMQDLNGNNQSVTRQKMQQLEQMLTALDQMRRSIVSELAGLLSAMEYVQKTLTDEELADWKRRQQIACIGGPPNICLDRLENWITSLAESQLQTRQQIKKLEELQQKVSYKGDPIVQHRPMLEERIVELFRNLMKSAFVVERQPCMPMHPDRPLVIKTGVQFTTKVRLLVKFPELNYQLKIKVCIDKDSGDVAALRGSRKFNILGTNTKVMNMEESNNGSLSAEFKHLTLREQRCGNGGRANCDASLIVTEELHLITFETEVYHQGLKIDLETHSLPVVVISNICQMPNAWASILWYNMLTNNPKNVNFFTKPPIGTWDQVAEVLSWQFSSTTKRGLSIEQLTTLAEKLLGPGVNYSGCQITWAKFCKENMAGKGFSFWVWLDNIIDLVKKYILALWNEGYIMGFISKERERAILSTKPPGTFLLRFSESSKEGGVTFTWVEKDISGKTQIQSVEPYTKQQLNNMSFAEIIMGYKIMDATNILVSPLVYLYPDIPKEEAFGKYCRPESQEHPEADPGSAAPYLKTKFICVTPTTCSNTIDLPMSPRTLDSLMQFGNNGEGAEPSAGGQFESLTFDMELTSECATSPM

B1: C16 peptide (derived from the STAT3-binding sites of SHF) (peptide, UniProt Q7M4L6 388-421, looked up)
peptide: PFSSVPEIVHHYASRKLPIKGAEHMSLLYPVAIR
modifications: palmitic acid at the N-terminus; amidated C-terminus
notes: '3× His tags' is not explained further (three histidines or three His tags); source: synthetic peptide (Genscript; solid-phase Fmoc synthesis, RP-HPLC, purity above 95%); not shown: 3× His tags, C-terminal, kept
stoichiometry N: 1
